Where two headings read alike, the source gives them in different places.
Experiments:
[1] = Blood group antigen ELISA, H type I; format: binding
Method: The Lewis ^y hapten and the type I and type II H blood group antigen (Sigma, Poole, Dorset) were dried microtitre plates by overnight incubation at 37° C. Binding of SC104 mab was assayed by ELISA as described above.

C170 xenografts = format: in vivo
Method: Prevention model. The colorectal tumour cell line, C170 was maintained in serial passage in nude mice. For therapy the mice were sacrificed and the tumours excised. The tumour was finely minced and […] pieces were implanted, under anaesthetic, subcutaneously into 30 male mice which had been randomly allocated to 4 experimental groups.
Mice were explanted with 3 mm^3 pieces of C170 xenografts. Groups of mice were treated with 5-FU/leucovorin (12.5 mg/Kg) by intravenous infusion on days 1, 3, 5, 7 and 28. On the same days mice were also injected intraperitonealy with 0.2 mg of SC104 mab. Control mice received either SC104 alone or control mouse IgG antibody with 5-FU/leucovorin. Tumour size was measured by callipers and tumour cross sectional area calculated on days 7, 9, 12, 14 and 16. Animals were weighed to assess the toxicity of treatment. At the termination of the experiment tumours were weighed to assess anti-tumour efficacy.

[2] = HPTLC immunostaining of commercially available lipid standards; format: binding; details: standards of Table 6 (lactosyl ceramide, Gb3, globoside, Forrsman, GM3, AGM1, GM1, GD3, GD1a, GD1b, GT1b)
Description: The SC104 antigen has been compared to a number of commercially available lipid standards. Examples of each standard were spotted onto HPTLC plates and developed in 50:40:10 chloroform:methanol:CaCl2 (0.5% w/v). Plates were also spotted with partially purified SC104 antigen. Migration of each standard was detected by iodine vapour staining and the location of each marked on the plate. Plates were then probed with SC104.

normal colon = assay: Immunohistochemistry of normal colon (screening); format: binding; set-up: key: −: negative; +: minimal; 2+: strong; 3+: very strong
[3] = HPTLC immunostaining of C170 lipid extract fractions; format: binding
Method: • Lipid extraction from C170 tumour cells. A pellet of C170 cells (1 ml packed cell volume) was obtained by trypsinisation of a static adherent tissue culture. The pellet was washed in PBS and the excess buffer removed by aspiration following centrifugation, then stored at −80° C. The pellet was extracted with chloroform:methanol (3:1, v/v, 19 ml). The resultant emulsion was centrifuged at 8,000 rpm in a 50 ml solvent resistant (Tefzel) centrifuge tube for 15 min at 4° C. The supernatant was dried down using a rotary evaporator at 30° C. and resuspended in a small volume (˜1 ml) chloroform:methanol:0.5% CaCl2(aq) (50:40:10). • HPTLC analysis of lipid extracts The sample was multiply spotted onto a Merck HPTLC plate and developed in chloroform:methanol:0.5% CaCl2(aq) (50:40:10) as standard. The plates were dried and then placed in an iodine vapour tank. Bands were marked in pencil and the iodine allowed to evaporate off the plate over night. The plates were then immunostained in order to localise the antigen. • Immunostaining of developed HPTLC plates. For SC104 immunostaining, the plates were immersed in polyisobutyl methylmethacrylate (0.1% w/v solution) hexane:chloroform (9:1) for 15 seconds then allowed to dry. The plates were then blocked in 3% BSA in PBS for 1 hr at room temperature, followed by incubation in either test antibody solution (10 μg/ml) or BSA solution, for 1 hr at room temperature. The plates were then washed three times in PBS/Tween-20 (0.1%), before being incubated in rabbit anti-mouse HRP conjugate from Dako (1/250 in PBS) for 1 hr at room temperature. The plates were then washed three times in PBS/Tween −20(0.1%) and once in 10 mM Tris, 100 mM NaCl pH 7.0, 0.1% Tween and developed in Sigma-FAST […] reagent. • Chemical staining of developed HPTLC plates. Orcinol staining was employed to detect the presence of carbohydrate moieties. Developed HPTLC plates were allowed to dry before spraying with orcinol reagent until fully coated. The plates were dried in a stream of hot air and incubated at 100° C. for 15 minutes. Ninhydrin staining was used to detect molecules containing free amino groups. Developed HPTLC plate were first allowed to dry and then dipped in ninhydrin solution (0.25% ninhydrin w/v in acetone) until fully wetted. The plate was then allowed to develop at room temperature for several hours. Results
• Silica column fractionation of lipid extract. A gravity column (150 mm i.d.) was packed with a silica slurry in chloroform:methanol:0.5% CaCl2(aq) (50:40:10). The C170 extract, re-dissolved in ˜1 ml chloroform:methanol:0.5% CaCl2(aq) (50:40:10) was loaded onto the column and eluted using the same solvent conditions. Fractions were collected and analysed by HPTLC. […]

caspase 6 in C170 cells = assay: Caspase 6 activation (Western blot); format: cell-based; details: 6 hrs; SC104 at 10, more intensely at 100 μg/ml; FIG. 18
Method: Caspase 6 activation by SC104 mab. 2×10^5 colorectal C170 cells were exposed to 1-100 μg/ml of SC104 for 6 hrs and cell lysates generated. The lysates were subsequently run a 12% SDS-PAGE, Western blotted and probed with a caspase 6 specific antibody (Cleaved caspase 6 antibody, Cell Signalling Technology (NEB), catalogue number 9761). Cells exposed to SC101 were included as a negative control.

B1: SC104: mouse IgG1 monoclonal antibody specific for a sialyltetraosyl carbohydrate, raised by immunisation with colorectal cancer cell lines (antibody, V domains shown)
VH: DVQLQESGPDLVKPSQSLSLTCTVTGYSITSGYSWHWVRQFPGNKMEWMGHIHFSGRPTYNPSLSSRISITRDTSKNQFLLQLKFVTTEDTSTYFCARKGKGSDDGLNYWGQGISVTVSS
VL: ENVLTQSPVIMSASPGEKVTMTCSASSSLSYIHWYQQKSRTSPKLWIYDTSNLASGVPGRFSGSGSGNSYSLTISSMEAEDVATYYCFQGSEYPLTFGGGTKLEMT
- Binding to blood group antigens by ELISA: H blood group Type I [1]: 0.087 OD 405 nm
- survival of mice (C170 xenografts; Log Rank, FIG. 26b): significant improvement of survival
- inhibition of tumour growth of freshly explanted tumours (C170 xenografts; SC104 200 μg/dose ip, 5-FU/leucovorin at maximum tolerated dose, FIG. 26a): 50%
- inhibition of tumour growth (C170 xenografts; day 9): 32%
- inhibition of tumour growth (C170 xenografts; day 12): 44%
- inhibition of tumour growth (C170 xenografts; day 14): 54%
- inhibition of tumour growth (C170 xenografts; day 16): 62%
- recognition of lipid standards [2]: none of the standards were recognised by SC104
- Immunohistochemistry Normal colon (normal colon): +
- binding after chemical removal of sialic acids (acid hydrolysis) ([3]; 0.05 M sulphuric acid, 80° C., 2 hrs): complete loss of SC104 binding
- binding to asialo form ([3]; HPTLC immunostaining): does not bind to an asialo form
- binding to sialylated glycolipid forms ([3]; HPTLC immunostaining, silica column fractions): bind to a mono, di and even polysialylated glycolipid
- binding after ceramide glycanase removal of oligosaccharides ([3]; aqueous and organic phase, FIG. 8): loss of SC104 binding in both fractions
- caspase 6 activation (caspase 6 in C170 cells): activation of caspase 6
